Experimental data taken from patent publication US20250019439A1 (Adimab, published 2025).

What was measured:
ADI-67450 = biological target: T1, ADI-67450; assay: SPR Carterra avidity, yeast anti-ID
T1 construct: anti-CD3 antibody made in CHO cells, captured by anti-human Fc
Procedure: (§1) Kinetic analysis was conducted at 25° C. in an HBSTE running buffer system (Carterra Cat #3630) using a Carterra LSA (Carterra USA, Salt Lake City, UT). The sample compartment was maintained at 20° C. for the duration of each experiment.
(§2) For antibody capture experiments, a goat anti-human Fc antibody (Jackson ImmunoResearch) was covalently coupled to an HC30M sensor chip surface via standard amine coupling (1:1 EDC:NHS) and then blocked with ethanolamine (1.0 M, pH 8.5). Covalent coupling steps were performed in 25 mM MES buffer (Carterra, Cat #3625) plus 0.05% Tween20. The anti-CD3 antibodies (100 nM in running buffer) were flowed over discrete regions of interest on the chip surface for 5 minutes. […] Dissociation of the anti-idiotype antibodies was monitored for 300s. Several blank buffer samples were injected over the entire chip surface at the start of each non-regenerative kinetic cycle. The preceding blank buffer injection was used for blank surface subtraction. At the end of each non-regenerative kinetic cycle, all surfaces were regenerated via two 30s injections of 10 mM glycine, pH 1.7.
(§3) For data processing and fitting, sensorgrams were double reference subtracted with a baseline drift correction of 4 RU. Sensorgrams were y-aligned and baseline corrected, filtered and cropped to include only the association and dissociation steps. Data was fitted to a 1:1 binding model using Carterra Kinetics Data Analysis software version 1.7.1.3055.

ADI-26915 = biological target: T2, ADI-26915; assay: SPR Carterra avidity, yeast anti-ID
T2 construct: anti-CD3 antibody made in CHO cells, captured by anti-human Fc
T2 sequence (VH, as listed by the source, chain 1 of 2): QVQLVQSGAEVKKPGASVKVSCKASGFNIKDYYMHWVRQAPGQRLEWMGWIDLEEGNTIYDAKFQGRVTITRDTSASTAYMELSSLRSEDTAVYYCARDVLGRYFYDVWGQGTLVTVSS
T2 sequence (VL, as listed by the source, chain 2 of 2): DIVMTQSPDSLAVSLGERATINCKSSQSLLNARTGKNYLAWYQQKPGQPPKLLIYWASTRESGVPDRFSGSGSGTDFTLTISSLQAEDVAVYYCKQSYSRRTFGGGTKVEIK
Procedure: as §1, §2, §3

ADI-74968 = biological target: T3, ADI-74968; assay: SPR Carterra avidity, yeast anti-ID
T3 construct: pH-dependent anti-CD3 antibody made in CHO cells
Procedure: as §1, §2, §3

ADI-70330 = biological target: T4, ADI-70330; assay: SPR Carterra avidity, yeast anti-ID
T4 construct: anti-CD3 antibody made in CHO cells, captured by anti-human Fc
T4 sequence (VH, as listed by the source limits assumed, chain 1 of 2): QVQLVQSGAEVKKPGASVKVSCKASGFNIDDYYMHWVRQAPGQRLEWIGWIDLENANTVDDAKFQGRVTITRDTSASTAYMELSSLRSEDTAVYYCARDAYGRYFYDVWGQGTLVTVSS
T4 sequence (VL, as listed by the source limits assumed, chain 2 of 2): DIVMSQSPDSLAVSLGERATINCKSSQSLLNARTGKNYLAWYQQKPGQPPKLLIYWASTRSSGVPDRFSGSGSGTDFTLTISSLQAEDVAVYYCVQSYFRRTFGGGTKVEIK
Procedure: as §1, §2, §3

ADI-48576 = biological target: T5, ADI-48576; assay: SPR Carterra avidity, yeast anti-ID
T5 construct: pH-dependent anti-CD3 antibody made in CHO cells
Procedure: as §1, §2, §3

ADI-26916 IgG = biological target: T6, ADI-26916 IgG; assay: SPR Carterra avidity, yeast anti-ID
T6 construct: anti-CD3 IgG
T6 sequence (VH, as listed by the source, chain 1 of 2): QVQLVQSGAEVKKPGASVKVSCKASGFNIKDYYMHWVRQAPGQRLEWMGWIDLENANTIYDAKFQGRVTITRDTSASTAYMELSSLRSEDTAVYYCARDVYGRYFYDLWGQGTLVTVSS
Procedure: as §1, §2, §3

ADI-67447 = biological target: T7, ADI-67447; assay: SPR Carterra avidity, yeast anti-ID
T7 construct: anti-CD3 antibody made in CHO cells, captured by anti-human Fc
Procedure: as §1, §2, §3

ADI-48592 = biological target: T8, ADI-48592; assay: SPR Carterra avidity, yeast anti-ID
T8 construct: pH-dependent anti-CD3 antibody made in CHO cells
T8 sequence (VH, as listed by the source, chain 1 of 2): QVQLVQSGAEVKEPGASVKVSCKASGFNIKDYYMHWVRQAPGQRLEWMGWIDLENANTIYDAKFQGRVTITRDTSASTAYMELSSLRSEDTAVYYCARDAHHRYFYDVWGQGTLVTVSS
T8 sequence (VL, as listed by the source, chain 2 of 2): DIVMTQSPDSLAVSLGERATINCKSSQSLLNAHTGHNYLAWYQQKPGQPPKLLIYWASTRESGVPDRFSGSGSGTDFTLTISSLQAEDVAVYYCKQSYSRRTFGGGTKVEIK
Procedure: as §1, §2, §3

ADI-48650 = biological target: T9, ADI-48650; assay: SPR Carterra avidity, yeast anti-ID
T9 construct: pH-dependent anti-CD3 antibody made in CHO cells
Procedure: as §1, §2, §3

ADI-74966 = biological target: T10, ADI-74966; assay: SPR Carterra avidity, yeast anti-ID
T10 construct: pH-dependent anti-CD3 antibody made in CHO cells
T10 sequence (VH, as listed by the source, chain 1 of 2): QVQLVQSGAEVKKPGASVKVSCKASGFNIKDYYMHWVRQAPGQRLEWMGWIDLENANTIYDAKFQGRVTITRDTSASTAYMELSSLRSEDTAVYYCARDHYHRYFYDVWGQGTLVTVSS
T10 sequence (VL, as listed by the source, chain 2 of 2): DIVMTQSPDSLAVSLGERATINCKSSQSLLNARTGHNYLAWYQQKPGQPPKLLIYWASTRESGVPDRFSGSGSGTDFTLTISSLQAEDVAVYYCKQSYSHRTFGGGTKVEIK
Procedure: as §1, §2, §3

ADI-26924 = biological target: T11, ADI-26924; assay: SPR Carterra avidity, yeast anti-ID
T11 construct: anti-CD3 antibody made in CHO cells, captured by anti-human Fc
T11 sequence (VH, as listed by the source, chain 1 of 2): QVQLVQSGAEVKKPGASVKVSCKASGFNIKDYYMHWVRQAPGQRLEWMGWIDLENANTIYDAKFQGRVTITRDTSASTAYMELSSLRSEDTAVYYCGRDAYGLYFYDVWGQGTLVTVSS
T11 sequence (VL, as listed by the source, chain 2 of 2): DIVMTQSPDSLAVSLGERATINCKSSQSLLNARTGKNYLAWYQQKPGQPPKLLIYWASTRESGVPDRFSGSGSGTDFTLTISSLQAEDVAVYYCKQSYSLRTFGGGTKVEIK
Procedure: as §1, §2, §3

CTL-62223 = biological target: T12, CTL-62223; assay: SPR Carterra avidity, yeast anti-ID
T12 construct: also called mosunetuzumab
T12 sequence (VH, as listed by the source, chain 1 of 2): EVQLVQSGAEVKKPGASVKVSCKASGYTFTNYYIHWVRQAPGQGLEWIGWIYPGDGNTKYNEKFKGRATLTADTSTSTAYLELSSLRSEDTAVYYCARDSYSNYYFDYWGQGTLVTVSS
T12 sequence (VL, as listed by the source, chain 2 of 2): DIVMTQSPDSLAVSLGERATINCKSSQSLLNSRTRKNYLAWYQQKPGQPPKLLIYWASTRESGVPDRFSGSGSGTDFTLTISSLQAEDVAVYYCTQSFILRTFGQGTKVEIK
Procedure: as §1, §2, §3

ADI-26913 IgG = biological target: T13, ADI-26913 IgG; assay: SPR Carterra avidity, yeast anti-ID
T13 construct: anti-CD3 IgG
Procedure: as §1, §2, §3

ADI-26909 = biological target: T14, ADI-26909; assay: SPR Carterra avidity, yeast anti-ID
T14 construct: anti-CD3 antibody made in CHO cells, captured by anti-human Fc
Procedure: as §1, §2, §3

ADI-74965 = biological target: T15, ADI-74965; assay: SPR Carterra avidity, yeast anti-ID
T15 construct: pH-dependent anti-CD3 antibody made in CHO cells
Procedure: as §1, §2, §3

ADI-67445 = biological target: T16, ADI-67445; assay: SPR Carterra avidity, yeast anti-ID
T16 construct: anti-CD3 antibody made in CHO cells, captured by anti-human Fc
Procedure: as §1, §2, §3

ADI-48587 = biological target: T17, ADI-48587; assay: SPR Carterra avidity, yeast anti-ID
T17 construct: pH-dependent anti-CD3 antibody made in CHO cells
T17 sequence (VL, as listed by the source, chain 2 of 2): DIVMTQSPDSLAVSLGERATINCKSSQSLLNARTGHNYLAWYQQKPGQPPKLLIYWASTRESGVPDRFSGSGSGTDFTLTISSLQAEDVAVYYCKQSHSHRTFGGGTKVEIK
Procedure: as §1, §2, §3

ADI-70327 = biological target: T18, ADI-70327; assay: SPR Carterra avidity, yeast anti-ID
T18 construct: anti-CD3 antibody made in CHO cells, captured by anti-human Fc
T18 sequence (VH, as listed by the source limits assumed, chain 1 of 2): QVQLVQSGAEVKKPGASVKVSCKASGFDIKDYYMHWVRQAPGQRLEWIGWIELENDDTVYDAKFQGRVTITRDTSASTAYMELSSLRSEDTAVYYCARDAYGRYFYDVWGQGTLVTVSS
Procedure: as §1, §2, §3

ADI-76358 = biological target: T19, ADI-76358; assay: SPR Carterra avidity, yeast anti-ID
T19 construct: anti-CD3 antibody made in CHO cells, captured by anti-human Fc
T19 sequence (VH, as listed by the source, chain 1 of 2): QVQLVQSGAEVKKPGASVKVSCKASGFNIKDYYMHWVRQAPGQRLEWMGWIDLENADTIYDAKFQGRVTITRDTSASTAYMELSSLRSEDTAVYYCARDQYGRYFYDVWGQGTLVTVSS
Procedure: as §1, §2, §3

ADI-26912 = biological target: T20, ADI-26912; assay: SPR Carterra avidity, yeast anti-ID
T20 construct: anti-CD3 antibody made in CHO cells, captured by anti-human Fc
T20 sequence (VH, as listed by the source, chain 1 of 2): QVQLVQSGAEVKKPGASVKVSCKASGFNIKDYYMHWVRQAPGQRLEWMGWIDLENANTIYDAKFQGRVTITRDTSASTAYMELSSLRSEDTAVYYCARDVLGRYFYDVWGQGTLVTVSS
Procedure: as §1, §2, §3

ADI-74967 = biological target: T21, ADI-74967; assay: SPR Carterra avidity, yeast anti-ID
T21 construct: pH-dependent anti-CD3 antibody made in CHO cells
T21 sequence (VL, as listed by the source, chain 2 of 2): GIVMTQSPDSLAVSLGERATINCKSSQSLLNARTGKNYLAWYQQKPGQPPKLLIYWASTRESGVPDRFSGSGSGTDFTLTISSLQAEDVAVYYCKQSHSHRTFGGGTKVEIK
Procedure: as §1, §2, §3

ADI-76362 = biological target: T22, ADI-76362; assay: SPR Carterra avidity, yeast anti-ID
T22 construct: anti-CD3 antibody made in CHO cells, captured by anti-human Fc
T22 sequence (VH, as listed by the source, chain 1 of 2): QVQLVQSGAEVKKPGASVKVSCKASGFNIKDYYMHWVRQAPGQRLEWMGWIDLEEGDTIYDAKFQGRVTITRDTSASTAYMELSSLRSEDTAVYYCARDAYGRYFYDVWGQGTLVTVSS
Procedure: as §1, §2, §3

ADI-76360 = biological target: T23, ADI-76360; assay: SPR Carterra avidity, yeast anti-ID
T23 construct: anti-CD3 antibody made in CHO cells, captured by anti-human Fc
Procedure: as §1, §2, §3

ADI-70326 = biological target: T24, ADI-70326; assay: SPR Carterra avidity, yeast anti-ID
T24 construct: anti-CD3 antibody made in CHO cells, captured by anti-human Fc
Procedure: as §1, §2, §3

ADI-76357 = biological target: T25, ADI-76357; assay: SPR Carterra avidity, yeast anti-ID
T25 construct: anti-CD3 antibody made in CHO cells, captured by anti-human Fc
Procedure: as §1, §2, §3

ADI-22523 IgG = biological target: T26, ADI-22523 IgG; assay: BLI; tip anti-ID IgG, solution ADI-22523 IgG
T26 construct: anti-CD3 IgG
Outline: (§4)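 Sensors carrying captured anti-ID IgG were equilibrated 30 min in assay buffer before a 60 s baseline. Equilibrium KD was taken as koff/kon from a 1:1 model.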

ADI-22523 Fab = biological target: T27, ADI-22523 Fab; assay: BLI; tip anti-ID IgG, solution ADI-22523 Fab
T27 construct: anti-CD3 Fab by papain digestion of the IgG
Outline: as §4

ADI-26921 IgG = biological target: T28, ADI-26921 IgG; assay: SPR Carterra avidity, yeast anti-ID, *koff limit
T28 construct: anti-CD3 IgG
T28 sequence (VH, as listed by the source limits assumed, chain 1 of 2): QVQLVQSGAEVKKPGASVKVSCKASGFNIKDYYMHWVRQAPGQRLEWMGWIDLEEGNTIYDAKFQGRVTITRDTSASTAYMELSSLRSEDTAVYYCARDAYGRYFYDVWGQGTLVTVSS
Procedure: as §1, §2, §3

ADI-26920 IgG = biological target: T29, ADI-26920 IgG; assay: SPR Carterra avidity, yeast anti-ID, *koff limit
T29 construct: anti-CD3 IgG
Procedure: as §1, §2, §3

ADI-26919 = biological target: T30, ADI-26919; assay: SPR Carterra avidity, yeast anti-ID, *koff limit
T30 construct: anti-CD3 antibody made in CHO cells, captured by anti-human Fc
T30 sequence (VH, as listed by the source limits assumed, chain 1 of 2): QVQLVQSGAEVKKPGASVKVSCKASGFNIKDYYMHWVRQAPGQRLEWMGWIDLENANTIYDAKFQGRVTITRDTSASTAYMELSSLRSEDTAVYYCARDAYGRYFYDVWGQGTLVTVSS
Procedure: as §1, §2, §3

ADI-76359 = biological target: T31, ADI-76359; assay: SPR Carterra avidity, yeast anti-ID, *koff limit
T31 construct: anti-CD3 antibody made in CHO cells, captured by anti-human Fc
Procedure: as §1, §2, §3

ADI-50024 = biological target: T32, ADI-50024; assay: SPR Carterra avidity, yeast anti-ID, *koff limit
T32 construct: anti-CD3 antibody made in CHO cells, captured by anti-human Fc
T32 sequence (VH, as listed by the source limits assumed, chain 1 of 2): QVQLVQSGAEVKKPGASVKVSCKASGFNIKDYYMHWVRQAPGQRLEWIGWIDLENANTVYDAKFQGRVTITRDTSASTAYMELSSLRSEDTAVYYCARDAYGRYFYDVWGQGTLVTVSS
Procedure: as §1, §2, §3

ADI-26943 = biological target: T33, ADI-26943; assay: SPR Carterra avidity, yeast anti-ID, *koff limit
T33 construct: anti-CD3 antibody made in CHO cells, captured by anti-human Fc
Procedure: as §1, §2, §3

ADI-76361 = biological target: T34, ADI-76361; assay: SPR Carterra avidity, yeast anti-ID, *koff limit
T34 construct: anti-CD3 antibody made in CHO cells, captured by anti-human Fc
Procedure: as §1, §2, §3

ADI-26906 IgG = biological target: T35, ADI-26906 IgG; assay: SPR Carterra avidity, yeast anti-ID, *koff limit
T35 construct: anti-CD3 IgG
Procedure: as §1, §2, §3

T1 sequence (VH, as listed by the source limits assumed, chain 1 of 2): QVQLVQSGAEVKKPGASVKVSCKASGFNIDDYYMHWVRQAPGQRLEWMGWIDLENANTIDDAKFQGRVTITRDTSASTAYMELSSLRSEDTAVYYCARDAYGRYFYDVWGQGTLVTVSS

B1: ADI-34135 (antibody, V domains shown)
VH: QVQLVQSGAEVKKPGSSVKVSCKASGGTFSSYAISWVRQAPGQGLEWMGGIIPIFGTANYAQKFQGRVTITADESTSTAYMELSSLRSEDTAVYYCARGAPNYYGSGGYDDGWFDPWGQGTLVTVSS
VL: EIVMTQSPGTLSLSPGERATLSCRASQSVSSSYLAWYQQKPGQAPRLLIYGASSRATGIPDRFSGSGSGTDFTLTISRLEPEDFAVYYCQQFGRYPTFGGGTKVEIK
notes: anti-ID IgG
- Kd (ADI-67450): 630 pM
- Kd (ADI-26915): 15000 pM
- Kd (ADI-74968): 830 pM
- Kd (ADI-70330): 470 pM
- Kd (ADI-48576): 31000 pM
- Kd (ADI-26916 IgG): 140 pM
- Kd (ADI-67447): 260 pM
- Kd (ADI-48592): 19000 pM
- binding result (ADI-48650): binds
- Kd (ADI-74966): 350 pM
- Kd (ADI-26924): 140 pM
- Kd (CTL-62223): 1200 pM
- Kd (ADI-26913 IgG): 100 pM
- Kd (ADI-26909): 100 pM
- binding result (ADI-74965): binds
- Kd (ADI-67445): 340 pM
- Kd (ADI-48587): 1800 pM
- binding result (ADI-70327): binds
- Kd (ADI-76358): 1100 pM
- binding result (ADI-26912): binds
- Kd (ADI-74967): 210 pM
- Kd (ADI-76362): 410 pM
- Kd (ADI-76360): 150 pM
- Kd (ADI-70326): 4100 pM
- Kd (ADI-76357): 97 pM
- Kd (ADI-22523 IgG): 540 pM
- Kd (ADI-22523 Fab): 7810 pM
- Kd (ADI-26921 IgG): 73 pM
- Kd (ADI-26920 IgG): 110 pM
- Kd (ADI-26919): 82 pM
- Kd (ADI-76359): 53 pM
- Kd (ADI-50024): 170 pM
- Kd (ADI-26943): 99 pM
- Kd (ADI-76361): 44 pM
- Kd (ADI-26906 IgG): 130 pM
